Our source for the Km, kcat and K0.5 values is article PMC8528726, “Kinetics of H2O2-driven catalysis by a lytic polysaccharide monooxygenase from the fungus Trichoderma reesei” (The Journal of Biological Chemistry, 2021).

Substrate in this series: O=C1O[C@H]([C@@H](O)CO)C(O)=C1O
Briefly: purified protein. The class given is biochemical, Trichoderma reesei. The settings on record: 50 mM sodium acetate pH 5.0, 25 °C.

Where [1] appears, read: ascorbate peroxidase reaction, co-substrate H2O2, true value extrapolated over [H2O2], ping-pong, insufficient AscA saturation, treat with caution.

B1: TrAA9A (Trichoderma reesei QM6a) (protein)
chain: HGHINDIVINGVWYQAYDPTTFPYESNPPIVVGWTAADLDNGFVSPDAYQNPDIICHKNATNAKGHASVKAGDTILFQWVPVPWPHPGPIVDYLANCNGDCETVDKTTLEFFKIDGVGLLSGGDPGTWASDVLISNNNTWVVKIPDNLAPGNYVLRHEIIALHSAGQANGAQNYPQCFNIAVSGSGSLQPSGVLGTDLYHATDPGVLINIYTSPLNYIIPGPTVVSGLPTSVAQGSSAATATASATVPGGGSGPTSRTTTTARTTQASSRPSSTPPATTSAPAGGPTQTLYGQCGGSGYSGPTRCAPPATCSTLNPYYAQCLN
notes: saturated with copper
Regarding B1, under setting [1], the Km – broadly, the substrate concentration at which the rate is half of its maximum – was 140 µM; the kcat (in general, the number of substrate molecules converted per active site and unit of time at saturation) was 2.1 s⁻¹. Besides, the K0.5 (cellulose peroxygenase reaction, priming reductant, H2O2 and BMCC present, varied: cofactor) stood at 0.1 mM.
